Biological target: T1, methylamine dehydrogenase (quinone MADH) (Paracoccus denitrificans, UniProt P22619)
T1 chain 1: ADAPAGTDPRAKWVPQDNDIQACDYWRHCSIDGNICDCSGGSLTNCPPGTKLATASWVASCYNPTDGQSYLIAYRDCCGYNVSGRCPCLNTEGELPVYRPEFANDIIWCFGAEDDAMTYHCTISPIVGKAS
T1 chain 2: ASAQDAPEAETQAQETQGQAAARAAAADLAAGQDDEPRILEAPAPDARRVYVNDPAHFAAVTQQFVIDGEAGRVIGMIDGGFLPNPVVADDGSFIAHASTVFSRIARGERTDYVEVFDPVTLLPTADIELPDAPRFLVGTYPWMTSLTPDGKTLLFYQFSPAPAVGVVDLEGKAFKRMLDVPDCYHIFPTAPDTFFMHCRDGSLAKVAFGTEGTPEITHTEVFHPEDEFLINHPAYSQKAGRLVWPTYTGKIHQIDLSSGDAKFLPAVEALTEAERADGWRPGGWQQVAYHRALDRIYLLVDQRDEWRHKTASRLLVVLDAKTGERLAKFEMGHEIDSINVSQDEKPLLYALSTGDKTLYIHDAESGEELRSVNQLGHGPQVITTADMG
Assay: single-turnover kinetics

B1: MauG (protein)
chain: EQARPADDALAALGAQLFVDPALSRNATQSCATCHDPARAFTDPREGKAGLAVSVGDDGQSHGDRNTPTLGYAALVPAFHRDANGKYKGGQFWDGRADDLKQQAGQPMLNPVEMAMPDRAAVAARLRDDPAYRTGFEALFGKGVLDDPERAFDAAAEALAAYQATGEFSPFDSKYDRVMRGEEKFTPLEEFGYTVFITWNCRLCHMQRKQGVAERETFTNFEYHNIGLPVNETAREASGLGADHVDHGLLARPGIEDPAQSGRFKVPSLRNVAVTGPYMHNGVFTDLRTAILFYNKYTSRRPEAKINPETGAPWGEPEVARNLSLAELQSGLMLDDGRVDALVAFLETLTDRRYEPLLEESRAAQKD
  Kd: 10.4 µM

Reference: PMC3985960 (2014)
